This passage reports TMT signal-to-noise ratio results from patent US20210063414A1, “METHODS FOR PREVENTING AND/OR TREATING BONE LOSS CONDITIONS BY MODULATING IRISIN” (Dana-Farber Cancer Institute, Inc., priority 2018, published 2021).

The target in this experiment is T1, MLO-Y4 cell surface proteins (Mus musculus, UniProt Q8BFT2).
T1 construct: endogenous in cells; host or cells: MLO-Y4
T1 sequence (Q8BFT2 1-363): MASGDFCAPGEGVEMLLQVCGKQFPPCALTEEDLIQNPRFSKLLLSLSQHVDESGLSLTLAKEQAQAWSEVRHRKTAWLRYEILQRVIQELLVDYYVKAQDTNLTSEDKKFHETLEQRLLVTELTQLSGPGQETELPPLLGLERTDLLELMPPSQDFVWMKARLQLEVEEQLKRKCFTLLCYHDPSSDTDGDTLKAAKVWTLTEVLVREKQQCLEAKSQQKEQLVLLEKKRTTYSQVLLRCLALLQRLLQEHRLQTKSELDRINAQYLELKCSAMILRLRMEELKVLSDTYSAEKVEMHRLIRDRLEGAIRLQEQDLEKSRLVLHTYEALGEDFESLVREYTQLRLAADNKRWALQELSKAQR
Description: Crosslinking/co-immunoprecipitation/mass spectrometry (TMT quantitative proteomics) to identify irisin receptors. Format: binding. The conditions noted are these: co-precipitated protein Haus4 (HAUS4_MOUSE). In a few lines: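 Relative protein abundance came from 6-plex TMT MS3 quantitation on an Orbitrap Fusion Lumos, after in-gel trypsin digestion of Coomassie-stained SDS-PAGE lanes. Input was a Ni-NTA pulldown (250 mM imidazole elution) of lysates from murine MLO-Y4 cells. These cells were treated on ice with His-tagged irisin or adipsin (10 nM, 20 min) in serum-free medium, then crosslinked with 1.5 mM DTSSP for 30 min.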

As for adipsin, the TMT signal-to-noise ratio is on record as 518.102.
